{
  "source": "IntAct's records for PubMed 29892012",
  "parents": {"B1": {"name": "Keratin, type I cuticular Ha8 (Homo sapiens), O76015 (parent)", "chain": "MTSSYSSSSCPLGCTMAPGARNVSVSPIDIGCQPGAEANIAPMCLLANVAHANRVRVGSTPLGRPSLCLPPTCHTACPLPGTCHIPGNIGICGAYGENTLNGHEKETMQFLNDRLANYLEKVRQLEQENAELEATLLERSKCHESTVCPDYQSYFHTIEELQQKILCSKAENARLIVQIDNAKLAADDFRIKLESERSLRQLVEADKCGTQKLLDDATLAKADLEAQQESLKEEQLSLKSNHEQEVKILRSQLGEKLRIELDIEPTIDLNRVLGEMRAQYEAMLETNRQDVEQWFQAQSEGISLQDMSCSEELQCCQSEILELRCTVNALEVERQAQHTLKDCLQNSLCEAEDRFGTELAQMQSLISNVEEQLSEIRADLERQNQEYQVLLDVKTRLENEIATYRNLLESEDCKLPCNPCSTSPSCVTAPCAPRPSCGPCTTCGPTCGASTTGSRF", "partner": "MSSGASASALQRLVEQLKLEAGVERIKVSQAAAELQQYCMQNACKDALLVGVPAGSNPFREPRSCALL"}, "B2": {"name": "Coiled-coil domain-containing protein 120 (Homo sapiens), Q96HB5-4 (parent)", "chain": "MRREPRYQGQVGPDIHTDSERTLSSHQPRPLDSTKMEVKGQLISSPTFNAPAALFGEAAPQVKSERLRGLLDRQRTLQEALSLKLQELRKVCLQEAELTGQLPPECPLEPGERPQLVRRRPPTARAYPPPHPNQAHHSLCPAEELALEALEREVSVQQQIAAAARRLALAPDLSTEQRRRRRQVQADALRRLHELEEQLRDVRARLGLPVLPLPQPLPLSTGSVITTQGVCLGMRLAQLSQEDVVLHSESSSLSESGASHDNEEPHGCFSLAERPSPPKAWDQLRAVSGGSPERRTPWKPPPSDLYGDLKSRRNSVASPTSPTRSLPRSASSFEGRSVPATPVLTRGAGPQLCKPEGLHSRQWSGSQDSQMGFPRADPASDRASLFVARTRRSNSSEALLVDRAAGGGAGSPPAPLAPSASGPPVCKSSEVLYERPQPTPAFSSRTAGPPDPPRAARPSSAAPASRGAPRLPPVCGDFLLDYSLDRGLPRSGGGTGWGELPPAAEVPGPLSRRDGLLTMLPGPPPVYAADSNSPLLRTKDPHTRATRTKPCGLPPEAAEGPEVHPNPLLWMPPPTRIPSAGERSGHKNLALEGLRDWYIRNSGLAAGPQRRPVLPSVGPPHPPFLHARCYEVGQALYGAPSQAPLPHSRSFTAPPVSGRYYADFLYPPELSARLSDLTLEGEQSSSSDTQTPGTLV", "partner": "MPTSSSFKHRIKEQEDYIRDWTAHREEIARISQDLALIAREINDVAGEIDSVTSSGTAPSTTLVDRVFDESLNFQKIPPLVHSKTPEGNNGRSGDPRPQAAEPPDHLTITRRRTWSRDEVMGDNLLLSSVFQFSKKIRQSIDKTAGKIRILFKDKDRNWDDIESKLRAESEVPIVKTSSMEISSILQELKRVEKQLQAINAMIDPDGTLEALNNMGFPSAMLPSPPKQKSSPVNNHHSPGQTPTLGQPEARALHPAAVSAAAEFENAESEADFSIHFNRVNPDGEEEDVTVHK"}, "B3": {"name": "Cyclic AMP-dependent transcription factor ATF-4 (Homo sapiens), P18848 (parent)", "chain": "MTEMSFLSSEVLVGDLMSPFDQSGLGAEESLGLLDDYLEVAKHFKPHGFSSDKAKAGSSEWLAVDGLVSPSNNSKEDAFSGTDWMLEKMDLKEFDLDALLGIDDLETMPDDLLTTLDDTCDLFAPLVQETNKQPPQTVNPIGHLPESLTKPDQVAPFTFLQPLPLSPGVLSSTPDHSFSLELGSEVDITEGDRKPDYTAYVAMIPQCIKEEDTPSDNDSGICMSPESYLGSPQHSPSTRGSPNRSLPSPGVLCGSARPKPYDPPGEKMVAAKVKGEKLDKKLKKMEQNKTAATRYRQKKRAEQEALTGECKELEKKNEALKERADSLAKEIQYLKDLIEEVRKARGKKRVP"}},
  "data": [
    {"variants_of": "B1", "conditions": "with gbg10_human GNG10, P50151", "values": [
      {"variant": "D306A", "effect of a mutation on the interaction": "with no effect"}
    ]},
    {"variants_of": "B2", "conditions": "with CEP170P1, Q96L14", "values": [
      {"variant": "R346W", "effect of a mutation on the interaction": "with no effect"}
    ]},
    {"variants_of": "B3", "conditions": "with cc106_human CCDC106, Q9BWC9", "values": [
      {"variant": "L180F", "effect of a mutation on the interaction": "with no effect"}
    ]},
    {"variants_of": "B3", "conditions": "with ldoc1_human LDOC1, O95751", "values": [
      {"variant": "L180F", "effect of a mutation on the interaction": "with no effect"}
    ]},
    {"variants_of": "B3", "conditions": "with gps2_human GPS2, Q13227", "values": [
      {"variant": "L180F", "effect of a mutation on the interaction": "with no effect"}
    ]},
    {"variants_of": "B3", "conditions": "with tthy_human TTR", "values": [
      {"variant": "L180F", "effect of a mutation on the interaction": "with no effect"}
    ]},
    {"variants_of": "B3", "conditions": "with fbw1a_human BTRC", "values": [
      {"variant": "L180F", "effect of a mutation on the interaction": "with no effect"}
    ]}
  ]
}
